Numbering of substitutions follows the chain as printed.
B1: unnamed (protein)
chain: MLSFLRSTGRPERRRASLPALLLFTAALVASGLTAAPAAQAADNPYQRGPDPTNASIEAATGPFAVGTQPIVGASGFGGGQIYYPTDTSQTYGAVVIVPGFISVWAQLNWLGPRLASQGFVVIGIETSVITDLPDPRGDQALAALDWATTRSPVASRIDRTRLAAAGWSMGGGGLRRAALQRPSLKAIVGMAPWNGERNWSAVTVPTLFFGGSSDAVASPNDHAKPFYNSITRAEKDYIELRNADHFFPTSANTTMAKYFISWLKRWVDNDTRYRQFLCPGPSTGLFAPVSASMNTCPF
B2: unnamed (protein)
chain: B1 chain with R275T
B3: unnamed (protein)
chain: B1 chain with A155R, R275T

Substrate: pcPET (post-consumer)
Test: Proxy for plastic degradation [Released monomer concentration (HPLC/LC-MS) (TPA+MHET+BHET)]
Settings: pH 9

Protein	Proxy for plastic degradation (40 °C, 24 h) [µM]	Proxy for plastic degradation (60 °C, 6 h) [µM]
B1	270	–
B2	–	60
B3	870	–
